Data published in the supplement of paper PMC10567573.

B1: MYBL2 (parent)
chain: IAKHLKGRLGKQCRERWHNHLNPE
B2: GFOD1 (parent)
chain: SDDFCTFQMVLEGGVCCTVTLNFN

Variants of: B1
Test: protein stability index of a GFP-peptide fusion (GPS, HEK-293T) (PSI 1-6); higher = more stable
Conditions: c terminus: a fixed tail appended
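Note: lentivirally expressed fusions sorted by FACS into six bins by GFP to DsRed ratio, PSI derived from sequencing read proportions per bin multiplied by bin number.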

Variant	protein stability index
W17R	2.4
W17S	2.53
W17T	2.69
W17V	2.08
W17Y	2.38
H18A	1.61
H18C	1.8
H18D	1.85
H18E	1.82
H18F	2.24
H18G	1.85
H18I	2.73
H18K	2.87
H18L	1.55
H18N	2.33
H18P	1.9
H18Q	2.43
H18R	1.56
H18S	1.47
H18T	2.97
H18V	1.1
H18Y	1.67
N19A	1.41

Variant	protein stability index
N19C	1.54
N19D	2.05
N19E	2.24
N19F	2.58
N19G	2.8
N19H	1.73
N19I	3.11
N19K	1.72
N19L	2.63
N19M	1.63
N19P	1.02
N19Q	2.02
N19R	2.31
N19S	1.91
N19T	1.9
N19V	2.05
N19W	2.24
N19Y	3.59
H20A	1.69
H20C	2.44
H20D	1.96
H20E	2.35
H20F	1.92

Variant	protein stability index
H20G	1.87
H20I	1.77
H20K	2.18
H20L	2.42
H20M	1.06
H20N	2.1
H20P	2.41
H20Q	1.84
H20R	1.21
H20S	1.54
H20T	2.09
H20V	2.58
H20W	2.57
H20Y	1.62
L21A	2.16
L21C	1.69
L21D	2.17
L21E	2.88
L21F	1.91
L21G	1.98
L21H	1.75
L21I	2.29
L21K	2.79

Variant	protein stability index
L21M	1.47
L21N	2.22
L21P	2.97
L21Q	2.47
L21R	2.34
L21S	1.97
L21T	2.3
L21V	2.23
L21W	1.79
L21Y	1.85
N22A	1.73
N22C	1.92
N22D	2.06
N22E	2.42
N22F	2.7
N22G	1.43
N22H	1.91
N22I	2.09
N22K	1.51
N22L	2.24
N22M	2.58
N22P	1.35
N22Q	2.05

Variant	protein stability index
N22R	1.64
N22S	2.29
N22T	2.53
N22V	2.44
N22W	2.6
N22Y	2.45
P23A	2.62
P23C	2.4
P23D	1.89
P23E	1.85
P23F	3.01
P23G	2.03
P23H	2.1
P23I	2.14
P23K	2.26
P23L	1.66
P23M	2.21
P23N	1.93
P23Q	1.79
P23R	2.11
P23S	1.49
P23T	2.19
P23V	2.46

Variant	protein stability index
P23W	1.98
P23Y	1.33
E24A	2.08
E24C	1.41
E24D	2.34
E24F	2.82
E24G	3
E24H	2
E24I	2.27
E24K	2.68
E24L	2.54
E24M	3.97
E24N	2.35
E24P	2.12
E24Q	1.4
E24R	2.75
E24S	1.81
E24T	2.21
E24V	3.05
E24W	1.79

Variants of: B2
Test: as above
Conditions: c terminus: a fixed tail appended

Variant	protein stability index
S1A	3.07
S1D	2.52
S1E	1.75
S1H	2.21
S1K	3.01
S1M	2.15
S1N	2.42
S1P	2.84
S1Q	1.76
S1R	2.98
S1T	3.26
S1Y	3.3
D2A	3.55
D2C	3.12
D2E	3.11
D2G	2.84

Variant	protein stability index
D2H	2.72
D2L	3.05
D2M	1.27
D2N	3.57
D2Q	3.58
D2S	3.14
D2T	3.29
D2Y	3.72
D3A	2.55
D3G	3.28
D3I	1.7
D3K	3.76
D3L	2.58
D3N	2.68
D3P	3.01
D3Q	2.69
